Experimental data published in PMC9911399, “Two distinct binding modes provide the RNA-binding protein RbFox with extraordinary sequence specificity”.
Substitutions are numbered along the chain they refer to; changes in the protein carry UniProt numbers.

T1: RbFoxmut (RRM with four substitutions) (UniProt Q9NWB1)
T1 sequence: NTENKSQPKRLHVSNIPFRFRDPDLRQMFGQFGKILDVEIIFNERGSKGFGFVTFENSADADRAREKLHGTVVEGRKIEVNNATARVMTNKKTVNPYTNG

T2: RBFOX1 RRM RbFoxmut (Fox-RRM*) (Homo sapiens, UniProt Q9NWB1 109-208, R118D;E147R;N151S;E152T)
T2 sequence: T1 sequence with R10D, E39R, N43S, E44T

T3: RBFOX1 RRM (Homo sapiens, UniProt Q9NWB1 109-208)
T3 sequence: T1 sequence

T4: RbFox RRM (wt) (UniProt Q9NWB1 109-208)
T4 sequence: T1 sequence


Key:
[1] = molecular target: T1, RbFoxmut (RRM with four substitutions); experiment: EMSA; details: EMSA: 10 mM Tris pH 7.5, 150 mM NaCl, 3.4 mM EDTA, 0.001% NP-40, 30 C, 10 min, 1 nM RNA, 8% native PAGE; NMR: 10 mM sodium phosphate pH 6.0, 30 mM NaCl, 298 K …
[2] = molecular target: T2, RBFOX1 RRM RbFoxmut (Fox-RRM*); experiment: EMSA; 10 mM Tris pH 7.5, 150 mM NaCl, 3.4 mM EDTA, 0.001% NP-40, 30 C; details: tags: His6 N-terminal (pET28a); label: 5' 32P
[3] = molecular target: T3, RBFOX1 RRM; experiment: as above; details: tags: His6 N-terminal (pET28a); label: 5' 32P
[4] = molecular target: T4, RbFox RRM (wt); experiment: EMSA; EMSA: 10 mM Tris pH 7.5, 150 mM NaCl, 3.4 mM EDTA, 0.001% NP-40, 30 C, 10 min, 1 nM RNA, 8% native PAGE; NMR: 10 mM sodium phosphate pH 6.0, 30 mM NaCl, 298 K; details: protein: recombinant; tags: His6 (HisTrap) for EMSA; His6-GST removed by TEV for NMR; label: 5' 32P (EMSA); unlabeled (NMR)

| Molecule | K half [1] [nM] | apparent K (half saturation) [2] [nM] | other results |
| --- | --- | --- | --- |
| UGAAUGU | 35.3 | – | – |
| UGCAUGU [UGCAUGU (cognate)] | 14.3 | – | – |
| UACAUGU | – | – | binding signal [1]: -5.01 ln(KA,rel) |
| UGCAUGU (ssRNA) | – | 14.3 ± 2.5 | – |
| UGAAUGU (ssRNA) | – | 35.3 ± 11.8 | apparent K (half saturation) [3]: > 17 µM |
| UGCAUGU (ssRNA) [UGCAUGU (cognate)] | – | – | apparent K (half saturation) [4]: 1.6 ± 0.3 nM |
